From PMC9407390 (Proceedings of the National Academy of Sciences of the …, 2022)

Molecular target: the molecule itself
Test: crystal structure

B1: soluble C terminus (soluble domain, residues 343 to 882) of Medicago truncatula DMI1 (domain or fragment)
chain: SEVIERNHVLILGWSDKLGSLLKQLAIANKSVGGGVIVVLAEKEKEEMEMDIAKLEFDFMGTSVICRSGSPLILADLKKVSVSKARAIIVLAADENADQSDARALRVVLSLAGVKEGLRGHVVVEMSDLDNEPLVKLVGGELIETVVAHDVIGRLMIQCALQPGLAQIWEDILGFENAEFYIKRWPELDDLLFKDILISFPDAIPCGVKVAADGGKIVINPDDNYVLRDGDEVLVIAEDDDTYAPGPLPEVRKGYFPRIRDPPKYPEKILFCGWRRDIDDMIMVLEAFLAPGSELWMFNEVPEKERERKLAAGELDVFGLENIKLVHREGNAVIRRHLESLPLETFDSILILADESVEDSVAHSDSRSLATLLLIRDIQSRRLPYRDTKSTSLRLSGFSHNSWIREMQQASDKSIIISEILDSRTRNLVSVSRISDYVLSNELVSMALAMVAEDKQINRVLEELFAEEGNEMCIKPAEFYLFDQEELCFYDIMIRGRTRKEIVIGYRLANQERAIINPSEKSVPRKWSLDDVFVVLASGE
For B1, the “stoichiometry N” value was 4.
